According to article PMC5595889:

Molecular target: mouse importin α1 lacking the N-terminal importin-β-binding domain (ΔIBB-importin α1) (mouse)
Assay: ITC

influenza NLS1 peptide (1-…-13)
Kd: 4.9 µM
